Test results: PMC10263302

Target: Complex IV (cytochrome c oxidase complex) of T. gondii (Toxoplasma gondii | Toxoplasma gondii (endogenous in the parasites))
Test: native gel or EMSA

Substance	reduction of the abundance of the complex against the cWT-containing complex (no ATc)
cFLAG-TgApiCox13^H49Q (natural protein)	75%
cFLAG-TgApiCox13^H85Q (natural protein)	45%
